B1: Cyclin-dependent kinase 14 (Homo sapiens), O94921 (parent)
chain: MCDLIEPQPAEKIGKMKKLRRTLSESFSRIALKKDDTTFDEICVTKMSTRNCQGMDSVIKPLDTIPEDKKVRVQRTQSTFDPFEKPANQVKRVHSENNACINFKTSSTGKESPKVRRHSSPSSPTSPKFGKADSYEKLEKLGEGSYATVYKGKSKVNGKLVALKVIRLQEEEGTPFTAIREASLLKGLKHANIVLLHDIIHTKETLTLVFEYVHTDLCQYMDKHPGGLHPDNVKLFLFQLLRGLSYIHQRYILHRDLKPQNLLISDTGELKLADFGLARAKSVPSHTYSNEVVTLWYRPPDVLLGSTEYSTCLDMWGVGCIFVEMIQGVAAFPGMKDIQDQLERIFLVLGTPNEDTWPGVHSLPHFKPERFTLYSSKNLRQAWNKLSYVNHAEDLASKLLQCSPKNRLSAQAALSHEYFSDLPPRLWELTDMSSIFTVPNVRLQPEAGESMRAFGKNNSYGKSLSNSKH

Variants of: B1
Conditions: with ccny_human CCNY

effect of a mutation on the interaction | Variant
decreasing interaction strength | K164R
